One substance from publication PMC11532467 can be followed below.

In the test the target is Glycylhalorhodopsin from Salinarimonas soli (SsGHR) (Salinarimonas soli). Briefly: crystal structure.

Consider “Glycylhalorhodopsin from Salinarimonas soli (SsGHR) (natural protein)”, for which the stoichiometry N (usually a count of units in the complex or per binding partner) is 3.
